The supplement of paper PMC9112550, “Optimization of the antimicrobial peptide Bac7 by deep mutational scanning” (BMC Biology, 2022)

Tested on: Escherichia coli TOP10
Assay: shrunken log2 fold change of peptide-encoding DNA abundance (4.5 h post-induction vs induction); higher = less antimicrobial activity (less host growth inhibition)
Details: time post-induction: 4.5 h; library: site-saturation at positions 5, 18, 19, 20
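Note: peptides expressed intracellularly from a pBAD plasmid library in pooled LB shake-flask culture, induced with 0.3% L-arabinose, DNA abundance read by NGS, three biological replicates, DESeq2 with apeglm shrinkage.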

Sequence	shrunken log2 fold change
RRIRGRPPRLPRPRPRPIVYPRP	-0.0951
RRIRYRPPRLPRPRPRPTRQPRP	-0.00287
RRIRWRPPRLPRPRPRPKSIPRP	-0.017
RRIRQRPPRLPRPRPRPNEAPRP	-0.0868
RRIRPRPPRLPRPRPRPGGNPRP	-0.0884
RRIRKRPPRLPRPRPRPVNTPRP	-0.207
RRIRNRPPRLPRPRPRPAQEPRP	0.0303
RRIRLRPPRLPRPRPRPAVMPRP	0.113
RRIRSRPPRLPRPRPRPERNPRP	-0.098
RRIRMRPPRLPRPRPRPNQDPRP	-0.123
RRIRNRPPRLPRPRPRPKGFPRP	-0.0324
RRIRLRPPRLPRPRPRPHQNPRP	-0.149
RRIRMRPPRLPRPRPRPAVQPRP	0.0778
RRIRFRPPRLPRPRPRPQQGPRP	-0.0566
RRIRYRPPRLPRPRPRPVVTPRP	-0.351
RRIRQRPPRLPRPRPRPKAGPRP	0.0875
RRIRARPPRLPRPRPRPNYDPRP	-0.36
RRIRERPPRLPRPRPRPPMHPRP	-0.171
RRIRWRPPRLPRPRPRPPVTPRP	0.283
RRIRPRPPRLPRPRPRPREKPRP	0.489
RRIRYRPPRLPRPRPRPHPAPRP	-0.333
RRIRPRPPRLPRPRPRPTPLPRP	0.453
RRIRCRPPRLPRPRPRPNREPRP	-0.134
RRIRWRPPRLPRPRPRPTAWPRP	2
RRIRNRPPRLPRPRPRPESVPRP	-0.145

Sequence	shrunken log2 fold change
RRIRRRPPRLPRPRPRPSPFPRP	0.292
RRIRNRPPRLPRPRPRPDWIPRP	0.0186
RRIRIRPPRLPRPRPRPCYLPRP	-0.0394
RRIRLRPPRLPRPRPRPAGEPRP	-0.0968
RRIRERPPRLPRPRPRPRRKPRP	0.11
RRIRMRPPRLPRPRPRPLEFPRP	-0.102
RRIRDRPPRLPRPRPRPMWTPRP	0.217
RRIRVRPPRLPRPRPRPLWQPRP	2.32
RRIRHRPPRLPRPRPRPCMSPRP	0.12
RRIRERPPRLPRPRPRPRFFPRP	-0.00349
RRIRTRPPRLPRPRPRPGDTPRP	-0.0833
RRIRPRPPRLPRPRPRPKKSPRP	0.085
RRIRTRPPRLPRPRPRPHLVPRP	0.0214
RRIRMRPPRLPRPRPRPPIPPRP	0.556
RRIRMRPPRLPRPRPRPHTKPRP	0.137
RRIRQRPPRLPRPRPRPDWEPRP	0.0238
RRIRERPPRLPRPRPRPGTVPRP	-0.973
RRIRMRPPRLPRPRPRPSEPPRP	0.33
RRIRIRPPRLPRPRPRPEYLPRP	0.0178
RRIRFRPPRLPRPRPRPHMVPRP	-0.809
RRIRCRPPRLPRPRPRPIHEPRP	-0.115
RRIRCRPPRLPRPRPRPYDRPRP	-0.188
RRIRHRPPRLPRPRPRPHYKPRP	-0.973
RRIRYRPPRLPRPRPRPWKYPRP	-0.0732
RRIRMRPPRLPRPRPRPGHHPRP	0.209

Sequence	shrunken log2 fold change
RRIRQRPPRLPRPRPRPELHPRP	0.0795
RRIRRRPPRLPRPRPRPAAKPRP	0.267
RRIRGRPPRLPRPRPRPAGIPRP	0.207
RRIRWRPPRLPRPRPRPWMQPRP	-0.147
RRIRPRPPRLPRPRPRPGRAPRP	0.549
RRIRVRPPRLPRPRPRPRFPPRP	0.285
RRIRERPPRLPRPRPRPQNDPRP	-0.551
RRIRQRPPRLPRPRPRPMMTPRP	0.0172
RRIRYRPPRLPRPRPRPWHEPRP	-0.01
RRIRGRPPRLPRPRPRPVTEPRP	0.706
RRIRIRPPRLPRPRPRPGEEPRP	-0.0165
RRIRNRPPRLPRPRPRPMHYPRP	-0.13
RRIRARPPRLPRPRPRPSSFPRP	-0.196
RRIRKRPPRLPRPRPRPQIRPRP	-0.0406
RRIRNRPPRLPRPRPRPMTSPRP	-0.0113
RRIRWRPPRLPRPRPRPHIFPRP	-0.494
RRIRRRPPRLPRPRPRPSYQPRP	-0.141
RRIRIRPPRLPRPRPRPWYLPRP	-0.166
RRIRFRPPRLPRPRPRPNINPRP	-0.536
RRIRFRPPRLPRPRPRPETVPRP	0.0039
RRIRSRPPRLPRPRPRPKYWPRP	-0.166
RRIRFRPPRLPRPRPRPTATPRP	0.355
RRIRYRPPRLPRPRPRPPEVPRP	-0.142
RRIRFRPPRLPRPRPRPRTTPRP	0.299
RRIRYRPPRLPRPRPRPFQKPRP	-0.0884

Sequence	shrunken log2 fold change
RRIRCRPPRLPRPRPRPAWFPRP	0.194
RRIRDRPPRLPRPRPRPNMFPRP	-0.0684
RRIRTRPPRLPRPRPRPAFCPRP	0.113
RRIRKRPPRLPRPRPRPMMPPRP	0.234
RRIRVRPPRLPRPRPRPDHTPRP	-0.428
RRIRWRPPRLPRPRPRPVGFPRP	0.558
RRIRGRPPRLPRPRPRPWHGPRP	-0.163
RRIRTRPPRLPRPRPRPYEWPRP	-0.139
RRIRWRPPRLPRPRPRPTNTPRP	-0.284
RRIRTRPPRLPRPRPRPTMMPRP	-0.14
RRIRMRPPRLPRPRPRPMTEPRP	0.12
RRIRNRPPRLPRPRPRPMCQPRP	-0.0153
RRIRWRPPRLPRPRPRPVQMPRP	0.159
RRIRARPPRLPRPRPRPCSKPRP	0.0365
RRIRLRPPRLPRPRPRPVDVPRP	0.0939
RRIRQRPPRLPRPRPRPFYTPRP	-0.589
RRIRMRPPRLPRPRPRPGASPRP	0.854
RRIRHRPPRLPRPRPRPIMEPRP	-0.545
RRIRWRPPRLPRPRPRPLQLPRP	0.0501
RRIRLRPPRLPRPRPRPTDEPRP	-0.111
RRIRLRPPRLPRPRPRPHIEPRP	-0.0305
RRIRVRPPRLPRPRPRPMWWPRP	-0.0322
RRIRFRPPRLPRPRPRPDPFPRP	-0.341
RRIRSRPPRLPRPRPRPCDWPRP	0.0154
RRIRHRPPRLPRPRPRPQREPRP	-0.0507

Sequence	shrunken log2 fold change
RRIRHRPPRLPRPRPRPDCWPRP	0.0871
RRIRLRPPRLPRPRPRPANDPRP	0.0379
RRIRCRPPRLPRPRPRPTQQPRP	-0.0719
RRIRCRPPRLPRPRPRPAHYPRP	-0.127
RRIRSRPPRLPRPRPRPRGWPRP	0.624
RRIRGRPPRLPRPRPRPTNTPRP	0.676
RRIRARPPRLPRPRPRPHDIPRP	-0.08
RRIRWRPPRLPRPRPRPLVGPRP	0.282
RRIRCRPPRLPRPRPRPYHDPRP	-1.05
RRIRWRPPRLPRPRPRPREDPRP	0.532
RRIRTRPPRLPRPRPRPIQIPRP	0.0193
RRIRGRPPRLPRPRPRPRNMPRP	0.0712
RRIRSRPPRLPRPRPRPPIDPRP	-0.0487
RRIRFRPPRLPRPRPRPWMAPRP	-0.254
RRIRYRPPRLPRPRPRPKDMPRP	0.0203
RRIRMRPPRLPRPRPRPDCLPRP	1.54
RRIRPRPPRLPRPRPRPQYRPRP	-0.105
RRIRHRPPRLPRPRPRPARHPRP	0.293
RRIRPRPPRLPRPRPRPSSNPRP	-0.388
RRIRKRPPRLPRPRPRPTSFPRP	-0.044
RRIRIRPPRLPRPRPRPQRHPRP	-0.401
RRIRKRPPRLPRPRPRPSSCPRP	0.31
RRIRRRPPRLPRPRPRPAYDPRP	0.0406
RRIRQRPPRLPRPRPRPGGYPRP	0.144
RRIRERPPRLPRPRPRPPLSPRP	-0.212
